Reference: patent publication US20220372125A1 (ASLAN PHARMACEUTICALS PTE, published 2022)

Experiments:
[1] = target: RON (Macrophage stimulating protein receptor), full length, on cells (human, UniProt Q04912 25-1400); assay: cell-based or functional assay
[2] = target: T1, Mammalian expressed extracellular human RON protein (Gly25 to Thr957) with His-tag (human, UniProt Q04912 25-957); assay: KinExA, RON-HIS
T1 construct: Expressed in ExpiCHO cells, purified on nickel; Position of the His-tag is told inconsistently; Written as one chain; also called RON ECD; RON ECD antigen; not shown: His-tag
T1 sequence: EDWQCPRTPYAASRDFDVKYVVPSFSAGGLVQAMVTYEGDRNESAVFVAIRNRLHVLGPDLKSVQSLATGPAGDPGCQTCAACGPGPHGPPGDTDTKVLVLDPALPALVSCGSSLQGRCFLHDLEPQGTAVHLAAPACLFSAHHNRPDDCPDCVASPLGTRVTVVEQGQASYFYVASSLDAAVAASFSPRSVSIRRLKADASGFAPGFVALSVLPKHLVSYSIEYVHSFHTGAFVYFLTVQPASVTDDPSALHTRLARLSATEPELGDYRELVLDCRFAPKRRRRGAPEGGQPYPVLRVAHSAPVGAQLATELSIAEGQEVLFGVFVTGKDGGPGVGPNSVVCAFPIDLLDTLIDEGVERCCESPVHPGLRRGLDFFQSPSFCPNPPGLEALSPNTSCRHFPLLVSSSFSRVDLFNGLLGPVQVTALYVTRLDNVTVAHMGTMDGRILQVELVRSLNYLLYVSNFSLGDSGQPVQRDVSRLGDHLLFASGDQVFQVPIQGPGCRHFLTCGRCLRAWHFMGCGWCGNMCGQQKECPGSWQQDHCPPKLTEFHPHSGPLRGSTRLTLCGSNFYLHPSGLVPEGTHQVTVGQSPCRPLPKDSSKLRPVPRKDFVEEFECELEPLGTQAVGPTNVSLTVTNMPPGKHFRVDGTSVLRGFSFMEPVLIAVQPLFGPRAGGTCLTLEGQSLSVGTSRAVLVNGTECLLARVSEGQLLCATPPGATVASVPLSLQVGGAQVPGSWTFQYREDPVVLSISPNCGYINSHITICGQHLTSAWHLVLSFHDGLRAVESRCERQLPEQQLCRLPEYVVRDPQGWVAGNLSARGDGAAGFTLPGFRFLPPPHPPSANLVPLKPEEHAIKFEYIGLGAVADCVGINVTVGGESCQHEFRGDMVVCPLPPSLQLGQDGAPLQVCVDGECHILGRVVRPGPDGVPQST

[3] = target: T1, Mammalian expressed extracellular human …; assay: KinExA, fixed antigen format, antibody titrated into fixed RON ECD-His
Excerpt: This limitation of the SPR method for highly avid antibodies has been described previously and the use of kinetic exclusion assay has been proposed as a way to overcome this limitation allowing measurements in the sub nanomolar range. We employed the Kinetic Exclusion assay (KinEXa) method to measure the Kd values of all of the new antibodies using a fixed concentration of the recombinant mammalian expressed protein as the target antigen and a twelve-point dilution curve of each antibody. We dropped antibody 9F6, in this assay as it seemed less avid than the other antibodies in preliminary SPR binding assays. The remaining seven antibodies gave exactly accurate results in duplicate analysis (FIG. 6).
(§1) Mammalian produced recombinant extracellular His-tag RON protein was used for affinity measurements. Affinity determinations were carried out in the fixed antigen format. Antibodies were titrated as two-fold dilutions into a fixed concentration of RON antigen. RON protein was detected using mouse monoclonal to 6×His-Tag (Dylight@650, Thermo Fisher). All affinity measurements were carried out using the KinExa 4000 (Sapidyne Instruments).

[4] = target: T1, Mammalian expressed extracellular human …; assay: KinExA, RON-HIS; 95% Confidence Level 14.92 pM to 49.11 pM
Description: as §1

[5] = target: T1, Mammalian expressed extracellular human …; assay: KinExA, RON-HIS; 95% Confidence Level 2.52 x 106 to 6.93 x 106

B1: 10G1 (antibody, V domains shown)
VH: EVKLEQSGGGLVQPGGSRKLSCAASGFTFSSFGMHWVRQAPEKGLEWVAYISGGSGTFYYADTVKGRFTISRDNPKNTLFLQMTSLRSEDTAIYYCARSTTVLDYWGQGTTLTVSS
VL: DIVLTQTPSSMYAFLGERVTIICKASQDINNYLNWVQQKPGKAPKTLIYHADRLADGVPSRFSGSGSGQDYSLTISSLEYEDMGIYYCLQYDDFPPFTFGSGTKLEIK
notes: Mouse monoclonal antibody from a hybridoma; kappa light chain; also called Antibody 10G1; anti-RON antibody 10G1
IC50 of inhibition of MSP induced ERK phosphorylation (AlphaLISA SureFire p-ERK, T47D cells) [1]: 2.8 nM
koff [2]: 0.000121 s⁻¹
Kd [3]: 0.029 nM
Kd [4]: 0.0294 nM
kon [5]: 4.12e+06 M⁻¹ s⁻¹
